This note sets out measurements from paper PMC9780223.

This assay addresses purified recombinant PAPP-A free of STC2 (apo PAPP-A) (human) (UniProt Q13219). Put plainly: MST.
Turning to “4P1, peptide from the linker region of IGFBP4 (from UniProt P22692)”, the Kd was found to be 1.73 µM. Next, “4P2, peptide from the linker region of IGFBP4 (from UniProt P22692)”: 27.5 µM. To “4P3, peptide from the linker region of IGFBP4 (from UniProt P22692)” belongs 162 µM; to “5P1, peptide from the linker region of IGFBP5 (from UniProt P24593)”, 4.43 µM; to “5P2, peptide from the linker region of IGFBP5 (from UniProt P24593)”, 17.3 µM. To “5P3, peptide from the linker region of IGFBP5 (from UniProt P24593)” belongs 38 µM.

By Kd is commonly meant the free concentration of one partner at which half of the binding sites on the other are occupied at equilibrium, for simple one-to-one binding.
